Measured values reported in PMC6644000 (Cell, 2019).

Target: T1, REV1 C-terminal domain (CTD) (mouse, UniProt Q920Q2 1150-1249)
T1 sequence (looked up): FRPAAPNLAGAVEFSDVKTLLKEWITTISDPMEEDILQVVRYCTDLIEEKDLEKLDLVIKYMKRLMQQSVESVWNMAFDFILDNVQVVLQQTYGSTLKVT
Test: crystal structure

binding result: binds
Binder: KSFFDKKRSERISN (domain or fragment, mouse, UniProt Q9QUG2 564-577, looked up) [POL κ RIR (REV1-interacting region) peptide]
